According to patent US20100287625A1, “VEGF VARIANTS” (UNIVERSITE DE LIEGE, priority 2006, published 2010):

Key:
[1] = molecular target: plasmin (Homo sapiens, UniProt P00747); assay: Degradation of recombinant VEGF by plasmin, western blotting; format: in vitro ADME; conditions: 20 ng reVEGF, plasmin 0.04 to 0.32 units/ml, 4 hours
Method: (§1) Recombinant VEGF165, VEGF121 or VEGF111 were produced in HEK293 cells. […] The figure depicts the percentage of degradation of each VEGF by comparison with untreated samples.
To facilitate the analysis of the electrophoretic patterns they were further treated with PNGase as described above and the products of the reactions were analysed by western blotting. […] FIG. 6A depicts the percentage of degradation of each VEGF by comparison with untreated samples.

[2] = Degradation of recombinant VEGF by chronic wound fluid, western blotting; format: in vitro ADME; conditions: for susceptibility to proteolytic degradation by plasmin and fluids from chronic ulcers: summary statement
Method: (§2) FIG. 7: VEGF111 is resistant to degradation by fluids collected from chronic wound. A: Conditioned media containing 20 ng of recombinant VEGF as produced above were treated with chronic wound fluid collected in one patient (20 μl at 37° C.) for indicated times and analysed by western blotting using anti-VEGF antibodies. B: HUVEC were treated with recombinant VEGF111, VEGF121 or VEGF165 produced in HEK293 cells, or with commercially available VEGF165 or the carrier alone, untreated or treated with fluids from chronic wounds (20 μl at 37° C. for 24 hours), and cell multiplication was measured by incorporation of ^3H-thymidine.
Conditioned media containing 20 ng of recombinant VEGF as produced above were treated with chronic wound fluid collected in one patient (20 μl at 37° C.) for indicated times and analysed by western blotting using anti-VEGF antibodies (FIG. 7A). […] FIG. 7B depicts the effect of treatment with chronic wound fluids on the mitogenic activity of the recombinants VEGF on HUVEC.

[3] = tested on: HUVEC; assay: Mitogenic activity on HUVEC of VEGF pre-treated with plasmin or chronic wound fluids (3H-thymidine incorporation); format: cell-based, human; conditions: summary statement, FIG. 6B, 7B
Method: as §1, §2
15000 HUVEC were seeded in gelatin-coated wells of 24 multiwells dishes in the presence of FCS. After three hours, the medium was replaced by fresh medium containing or not VEGF and renewed every two days. Cells were collected at various times and the DNA was measured by fluorimetry on a SpectraMax Gemini XS apparatus (Molecular Devices, England) after labeling with bis-benzimide. In some experiments, ^3H-thymidine (1 μM, 2.5 Ci/mol, NEN, Wellesley, Mass., USA) was added to cell cultures at day two and the trichloracetic acid-precipitable radioactivity was measured after 18 hours.

[4] = tested on: ERK1/2; assay: Activation of ERK1/2 signalling in HUVEC, western blotting; format: cell-based, human; conditions: HUVEC starved overnight, treated 5 min
Method: (§3) FIG. 4: VEGF111 is biologically active in vitro. A and B: VEGF111 activates VEGF-R2 (A) and ERK1/2 (B) in HUVEC. HUVEC were treated with HEK293 conditioned mediums containing VEGF111, VEGF121 or VEGF165, commercially available recombinant VEGF165 produced in bacteria (cVEGF) (20 ng/ml each) or fetal calf serum (FCS, 10%) for 5 minutes. Untreated cells (−) or cells treated with conditioned medium of control HEK293 cells (CM) served as control. Total and phosphorylated VEGF-R2 and ERK1/2 were measured by western blotting. C: VEGF111 promotes proliferation of HUVEC. HUVEC were treated with HEK293 conditioned mediums containing VEGF111(black circles), VEGF121 (open triangles) or VEGF165 (black triangles) (10 ng/ml) or conditioned medium from control HEK293 cells (open circles). The DNA was measured in triplicate wells harvested at increasing time of treatment. D: representative microphotograph of -embryoid bodies after immunofluorescent labeling of CD31 as marker of vasculature. Bar: […]. E: A number of microphotographs (of 6 embryoid bodies from 3 independent experiments for each treatment) were taken at random and analyzed by 5 investigators not aware of the treatments, and a score (from 0 to 3, where 0 indicates lack of vascular labeling, and 3 maximum labeling) was given to each sample. F: CD31 mRNA level was measured in embryoid bodies (10 samples in 3 independent experiment for each group) as described in Material and Methods. Statistical analysis was performed using the homoscedastic Student T test. *: p<0.05; **: p<0.01; ***: p<0.001
The proteins were migrated onto polyacrylamide gels and transferred onto PVDF transfer membranes (NEN, Boston, Mass.) by electroblotting. The membranes were blocked by non-fat dry milk (3% in PBS-tween buffer) and probed with first and horseradish peroxidase-conjugated secondary antibodies. Signals were detected by chemiluminescence using a ECL Western Blotting Analysis system (Amersham, Little Chalfont, England) and X-ray film exposure and quantified using a Fluor-S MultiImager (BioRad, Hercules, Calif.).
VEGF induces a number of effects in endothelial cells, including autophosphorylation of its receptors, activation of the ERK1/2 MAPkinases pathways, induction of calcium transients and increased proliferation. The in vitro effects of recombinants VEGFs on HUVEC were compared. HUVEC were starved overnight and treated for five min. with reVEGFs. […] Conditioned medium from HEK293 cells transfected with the empty vector had no effect. To further confirm the biological activity of VEGF111 the activation of ERK1/2 signalling pathways was investigated by western blotting using monoclonal phospho-specific antibodies. HUVEC were starved overnight and treated with the three reVEGF isoforms, as well as rbVEGF165, for 5 min. […]

[5] = tested on: HUVEC; assay: Intracellular calcium transients in HUVEC (Fluo3, confocal microscopy); format: cell-based, human; conditions: conditioned medium with 10 ng VEGF, control medium about 15%
Method: HUVEC were plated for 18 hours in MCDB-131 medium containing 20% FCS in borosilicate culture chambers (Lab-Tek®, Nunc, Rochester N.Y.) coated with gelatin, rinsed with serum-free medium, incubated with the fluorophore Fluo3-AM (10 μM, Molecular Probes, Eugene, Oreg.) in serum-free medium for two hours and washed. The observation of the fluorescence emitted by the Fluo3-labeled cells started 5 minutes after the last washing. Microscope fields randomly selected were examined by a confocal microscope (Meridian, Akemos, Mich.). The Fluo3-loaded cells were excited by an Argon LASER at 488 nm and the emitted fluorescence recorded at 530 nm in each cell of the field by real time imaging. Image processing and data computing were performed using the Meridian software. The intensity of the emitted fluorescence was recorded every second during 4 minutes. As the overall fluorescence intensity varied from cell to cell, the level of fluorescence of each cell at the beginning of the recording was normalised to one arbitrary unit. The baseline of resting cells spontaneously oscillated by ±10% around the level of the first image acquisition. After a 20 second period of baseline recording, 10-20 μL of conditioned medium from HEK293 cells expressing or not VEGF111, VEGF121 or VEGF165 (10 ng) were added gently on the cells under microscopic examination. A 20% rise above the baseline was considered as a significant calcium rise and the cell regarded as responsive. The results were expressed as the percentage of responding cells.
The induction of calcium transients by the various reVEGFs was investigated on HUVEC by real-time fluorescent microscopy as described. As the calcium concentration in resting cells spontaneously varied by about 10% around the baseline, cells were defined as responsive when the treatments induced a peak of calcium at least 20% above the baseline. HUVEC were treated with conditioned mediums from control HEK293 cells or cells expressing VEGF111, VEGF121 and VEGF165.

[6] = tested on: HUVEC; assay: HUVEC proliferation (DNA measurement); format: cell-based, human; conditions: 10 ng/ml, medium renewed every two days
Method: as §3
15000 HUVEC were seeded in gelatin-coated wells of 24 multiwells dishes in the presence of FCS. […] Cells were collected at various times and the DNA was measured by fluorimetry on a SpectraMax Gemini XS apparatus (Molecular Devices, England) after labeling with bis-benzimide. In some experiments, ^3H-thymidine (1 μM, 2.5 Ci/mol, NEN, Wellesley, Mass., USA) was added to cell cultures at day two and the trichloracetic acid-precipitable radioactivity was measured after 18 hours. […]

[7] = tested on: recombinant VEGF111 produced in HEK293 cells
[8] = molecular target: recombinant VEGF121 produced in HEK293 cells (UniProt P15692)
[9] = molecular target: recombinant VEGF165 produced in HEK293 cells (UniProt P15692)

Sequence of plasmin (Homo sapiens, UniProt P00747) (P00747 581-810 limits assumed, species assumed): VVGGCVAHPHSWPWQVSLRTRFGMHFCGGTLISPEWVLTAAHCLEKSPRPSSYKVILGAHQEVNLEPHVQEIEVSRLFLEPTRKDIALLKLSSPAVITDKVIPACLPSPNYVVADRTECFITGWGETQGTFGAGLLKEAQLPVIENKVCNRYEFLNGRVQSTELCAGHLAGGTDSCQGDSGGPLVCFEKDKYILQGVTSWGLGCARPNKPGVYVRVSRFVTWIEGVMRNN
Sequence of plasmin (Homo sapiens, UniProt P00747) (P00747 97-580 partner limits assumed, species assumed): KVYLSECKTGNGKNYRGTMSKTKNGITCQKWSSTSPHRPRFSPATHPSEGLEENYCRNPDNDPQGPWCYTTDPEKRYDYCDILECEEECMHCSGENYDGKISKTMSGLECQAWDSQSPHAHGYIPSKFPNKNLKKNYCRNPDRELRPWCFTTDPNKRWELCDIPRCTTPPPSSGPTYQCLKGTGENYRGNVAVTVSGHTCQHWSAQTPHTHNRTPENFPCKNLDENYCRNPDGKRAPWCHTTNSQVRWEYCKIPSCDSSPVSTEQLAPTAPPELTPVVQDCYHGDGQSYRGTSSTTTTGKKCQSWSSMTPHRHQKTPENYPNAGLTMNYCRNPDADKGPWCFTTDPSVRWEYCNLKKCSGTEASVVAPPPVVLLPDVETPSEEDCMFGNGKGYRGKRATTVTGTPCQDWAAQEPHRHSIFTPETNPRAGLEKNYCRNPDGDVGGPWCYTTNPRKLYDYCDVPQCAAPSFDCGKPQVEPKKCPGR

VEGF165: known VEGF isoform, recombinant, produced in HEK293 cells [reference compound]
degradation by plasmin (western blotting) [1]: progressively degraded | susceptibility to proteolytic degradation by plasmin and fluids from chronic ulcers [2]: susceptible | effect of treatment by plasmin or fluids from non-healing wounds on the activity of the VEGF [3]: reduces or suppresses | phosphorylation of ERK1/2 [4]: induced | percentage of responding cells (calcium transients, peak at least 20% above baseline) [5]: 70% | increase of proliferation rate as compared to control conditioned medium [6]: 2.5 fold

plasmin
dose of plasmin that cleaves VEGF by 50% [7]: above 0.32 U/ml for VEGF111 | dose of plasmin that cleaves VEGF by 50% [8]: comprised between 0.05 and 0.07 U/ml for VEGF165 and VEGF121 | dose of plasmin that cleaves VEGF by 50% [9]: comprised between 0.05 and 0.07 U/ml for VEGF165 and VEGF121

B1: rbVEGF165: commercially available recombinant VEGF165 produced in bacteria (protein)
chain: APMAEGGGQNHHEVVKFMDVYQRSYCHPIETLVDIFQEYPDEIEYIFKPSCVPLMRCGGCCNDEGLECVPTEESNITMQIMRIKPHQGQHIGEMSFLQHNKCECRPKKDRARQENPCGPCSERRKHLFVQDPQTCKCSCKNTDSRCKARQLELNERTCRCDKPRR
phosphorylation of ERK1/2 [4]: induced

B2: VEGF121: known VEGF isoform, recombinant, produced in HEK293 cells (protein)
chain: APMAEGGGQNHHEVVKFMDVYQRSYCHPIETLVDIFQEYPDEIEYIFKPSCVPLMRCGGCCNDEGLECVPTEESNITMQIMRIKPHQGQHIGEMSFLQHNKCECRPKKDRARQEKCDKPRR
degradation by plasmin (western blotting) [1]: progressively degraded | susceptibility to proteolytic degradation by plasmin and fluids from chronic ulcers [2]: susceptible | effect of treatment by plasmin or fluids from non-healing wounds on the activity of the VEGF [3]: reduces or suppresses | phosphorylation of ERK1/2 [4]: induced | percentage of responding cells (calcium transients, peak at least 20% above baseline) [5]: 70% | increase of proliferation rate as compared to control conditioned medium [6]: 2 fold

B3: VEGF111: new VEGF isoform lacking exons 5 to 7, SEQ ID NO:2; recombinant, produced in HEK293 cells (protein, listed as Homo sapiens)
chain: MNFLLSWVHWSLALLLYLHHAKWSQAAPMAEGGGQNHHEVVKFMDVYQRSYCHPIETLVDIFQEYPDEIEYIFKPSCVPLMRCGGCCNDEGLECVPTEESNITMQIMRIKPHQGQHIGEMSFLQHNKCECRPCGPCSERRKHLFVQDPQTCKCSCKNTDSRCKARQLELNERTCRCDKPRR
degradation by plasmin (western blotting) [1]: unaffected | dose of plasmin that cleaves VEGF by 50% ([1]; 37° C.): above 0.32 U/ml | degradation by chronic wound fluid ([2]; 20 ng VEGF, 20 μl wound fluid of one patient, 37° C., after 24 hrs): no detectable degradation | effect of treatment by plasmin or fluids from non-healing wounds on the activity of the VEGF [3]: does not affect | phosphorylation of ERK1/2 [4]: induced | percentage of responding cells (calcium transients, peak at least 20% above baseline) [5]: 70% | increase of proliferation rate as compared to control conditioned medium [6]: 2 fold
